* marks the point of attachment. Biotin = O=C1N[C@H]2[C@H](CS[C@H]2CCCCC(=O)*)N1
Columns and labels:
[1] = target: T1, recombinant mature dimeric myostatin (human and mouse (mature sequences 100% …, UniProt O08689 268-376)); assay: ELISA, myostatin coated at 10 ng/well
T1 construct: also called GDF-8; mature myostatin
T1 sequence: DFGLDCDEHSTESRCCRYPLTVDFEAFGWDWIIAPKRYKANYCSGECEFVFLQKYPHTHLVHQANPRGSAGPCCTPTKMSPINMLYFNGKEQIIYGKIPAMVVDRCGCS
Method: 10B3 and 10B3 chimera (10B3C) bound myostatin (R&D Systems, 788-G8-010/CF) in a sandwich ELISA. Plates were coated with myostatin at 10 ng/well and blocked with Block solution (PBS, 0.1% TWEEN and 1% BSA). Following washing (PBS, 0.1% TWEEN), antibody was incubated at 37° C. for 2 hours over a dilution series and plates washed again prior to incubation at 37° C. for 1 hour with anti-mouse HRP or anti-human HRP (Dako, P0161 & Sigma, A-8400, respectively). Plates were again washed and OPD substrate (Sigma, P9187) added until colourometric reaction occurred and the reaction stopped by the addition of H₂SO₄.

[2] = target: T1, recombinant mature dimeric myostatin; assay: cell-based or functional assay
[3] = target: T1, recombinant mature dimeric myostatin; assay: ActRIIb receptor binding assay: inhibition of biotinylated myostatin binding to coated ActRIIb
Method: Recombinant soluble ActRIIb (R&D Systems 339-RBB) was coated in wells of an ELISA plate at 1 μg/ml in carbonate buffer overnight at 4° C. Plates were blocked (see Block solution above at 2.3) and washed following standard ELISA protocols. In parallel, 2 nM biotinylated myostatin (in-house, as described in 1.1, biotinylated material) was pre-incubated with an antibody dilution series consisting of 10B3, 10B3C, and a negative control (IgG1 isotype control) for 2 hours at 37° C. The biotinylated myostatin:antibody reactions were then added to the ActRIIb coated plate for 1 hour at 37° C. Standard wash procedures were followed prior to addition of 1:1000 diluted streptavidin-HRP conjugate (Dako P0397) and a further 37° C. incubation for 1 hour. Plates were again washed and assayed at absorbance 490 nm following OPD substrate (Sigma) and acid stop solution treatment. Inhibition curves and IC50 values for the inhibition of myostatin activity are shown in FIG. 5 and Table 8 respectively.

[4] = target: T1, recombinant mature dimeric myostatin; assay: cell-based or functional assay; remark: listed apart in the source
[5] = target: T2, myostatin artificial peptide No 1 (…) (N-terminus H-; C-terminus -NH2); assay: SRU BIND biosensor, peptides captured on streptavidin plate
T2 construct: also called Peptide 1
Method: (§1) Work was carried out on an SRU BIND reader (SRU Biosystems). A streptavidin biosensor plate was washed, a baseline reading taken, and biotinylated peptides captured onto the streptavidin coated biosensor plate. The plate was washed again, and a new baseline reading taken, antibody was then added and binding monitored.

[6] = target: T3, myostatin artificial peptide No 35 (SGSGSAGPCCTPTKMSPI) (cysteine pairing not given here); assay: as above
T3 construct: also called Peptide 35
T3 peptide: Biotin-SGSGSAGPCCTPTKMSPI-NH2
Method: as §1

[7] = target: T4, myostatin artificial peptide No 43 (SGSGLYFNGKEQIIYGKI) (HELM PEPTIDE1{[O=C1N[C@H]2[C@H](CS[C@H]2CCCCC(=O)[*:2])N1].S.G.S.G.L.Y.F.N.G.K.E.Q.I.I.Y.G.K.I.[am]}$$$$V2.0; SMILES …); assay: as above
T4 construct: also called Peptide 43
T4 peptide: SGSGLYFNGKEQIIYGKI
Method: as §1

[8] = target: T5, myostatin artificial peptide No 45 (SGSGGKEQIIYGKIPAMV) (HELM PEPTIDE1{[O=C1N[C@H]2[C@H](CS[C@H]2CCCCC(=O)[*:2])N1].S.G.S.G.G.K.E.Q.I.I.Y.G.K.I.P.A.M.V.[am]}$$$$V2.0; SMILES …); assay: as above
T5 construct: also called Peptide 45
T5 peptide: SGSGGKEQIIYGKIPAMV
Method: as §1

[9] = target: T1, recombinant mature dimeric myostatin; assay: BIAcore T100 SPR, antibody captured on anti-mouse IgG, myostatin analyte, all curves Bivalent model
Method: The affinity of 10B3 mouse parental and 10B3C for recombinant myostatin was assessed by BIAcore™ (surface plasmon resonance) analysis. Analysis was carried out by the use of a capture surface: anti-mouse IgG was coupled to a C1 chip by primary amine coupling for 10B3 mouse parental; and a protein A surface was created on a C1 chip by primary amine coupling for 10B3 chimera.
After capture, recombinant myostatin was passed over the surface at 64 nM, 16 nM, 4 nM, 1 nM, 0.25 nM and 0.0625 nM, with a buffer injection (i.e. 0 nM) used for double referencing. There was a regeneration step between each analyte injection, after which the new antibody capture event occurred before the next injection of myostatin. The data was analysed using both the 1:1 model and the Bivalent model inherent to the T100 machines analysis software (see Table 6). Both capture surfaces could be regenerated using 100 mM phosphoric acid, the work was carried out using HBS-EP as the running buffer and using 25° C. as the analysis temperature.

[10] = target: T1, recombinant mature dimeric myostatin; assay: Kinexa solution phase affinity

B1: mouse monoclonal antibody 10B3 (antibody, mouse IgG2a, V domains shown)
VH: EVQLQQSGPELVKPGASVKISCKASGYSFTGYFMHWVKQSHGNILDWIGNIYPYNGVSNYNQRFKAKATLTVDKSSSTAYMELRSLTSEDSAVYYCARRYYYGTGPADWYFDVWGTGTTVTVSS
VL: DIKMTQSPSSMYASLRERVTITCKASQDINSYLSWFQQKPGKSPKTLIYRANRLVDGVPSRFSGSGSGQDYSLTISSLEYEDMGIYYCLQCDEFPLTFGAGTKLELK
notes: Murine IgG2a/k; also called 10B3 mouse parental; parental 10B3
[1]
  EC50: 0.069 µg/mL
[2]
  IC50, myostatin responsive reporter gene assay (A204 cells, luciferase): 10 nM
[3]
  IC50: 0.161 nM
[4]
  IC50, myostatin responsive reporter gene neutralisation assay (A204): 10 nM
[5]
  binding result: no binding
[6]
  binding result: no binding
[7]
  binding result: no binding
[8]
  binding result: no binding
[9]
  Kd: 5.9 nM
[10]
  Kd: 0.205 nM
